Assay [1] addresses T1, GST-GSK3β (UniProt P49841 1-420). Nature of the assay: pull-down.
Assay [2] concerns the target T1, GST-GSK3β. The experiment in a line: pull-down. This is another data set of the same source.

Like-named read-outs stand apart in the source and are kept apart here.

T1 sequence (P49841 whole entry): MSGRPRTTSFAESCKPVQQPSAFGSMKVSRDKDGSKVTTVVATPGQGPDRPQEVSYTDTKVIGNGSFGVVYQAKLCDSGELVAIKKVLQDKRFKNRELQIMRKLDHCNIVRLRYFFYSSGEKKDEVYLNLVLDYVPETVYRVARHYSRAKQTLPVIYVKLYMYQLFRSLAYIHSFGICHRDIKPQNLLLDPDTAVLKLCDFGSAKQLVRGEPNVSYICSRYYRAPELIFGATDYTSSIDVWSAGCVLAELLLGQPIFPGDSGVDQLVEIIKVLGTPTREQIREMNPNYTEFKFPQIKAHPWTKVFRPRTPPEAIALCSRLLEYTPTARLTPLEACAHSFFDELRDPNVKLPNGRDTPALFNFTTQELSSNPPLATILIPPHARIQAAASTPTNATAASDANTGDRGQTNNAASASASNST

B1: His-eIF4E2 (natural protein, UniProt O60573 1-245, looked up)
chain: MNNKFDALKDDDSGDHDQNEENSTQKDGEKEKTERDKNQSSSKRKAVVPGPAEHPLQYNYTFWYSRRTPGRPTSSQSYEQNIKQIGTFASVEQFWRFYSHMVRPGDLTGHSDFHLFKEGIKPMWEDDANKNGGKWIIRLRKGLASRCWENLILAMLGEQFMVGEEICGAVVSVRFQEDIISIWNKTASDQATTARIRDTLRRVLNLPPNTIMEYKTHTDSIKMPGRLGPQRLLFQNLWKPRLNVP
Consider B1, for which, in the assay with GST-GSK3β [1], the binding result is listed as “binds”.

As for RLLFQNLWKPRL [peptide e2-I], the binding result with GST-GSK3β [2] was “binds”.

(Values after doi:10.1101/2020.10.20.346569 (bioRxiv, 2020).)
